Measurements from patent US20250276077A1 (IMMUNOME, published 2025).
Substitutions are numbered along the chain they refer to.

B1: AB-010693 (antibody, V domains shown)
VH: QVQLQQWGAGLLKPSETLSLTCAVYGGSFSGYYWSWIRQPPGKGLEWIGEINHRGSINYNNYNPSLKSRVTISVDTSKNQFSLKLSSVTAADTAVYYCAKPLRPHCINGVCYSGDAFDIWGQGTMVTVAS
VL: SYVLTQPPSVSVAPGQTARITCGGNNIGYKNVHWYQQKPGQAPVLVVYDDSDRPSGIPERFSGSNSGNTATLTISRVEAGDEADYYCQVWDSSSDHVVFGGGTKLTVL
B2: AB-010665 (antibody, V domains shown)
VH: B1 VH with G31D
VL: B1 VL with R60Q
B3: AB-010701 (antibody, V domains shown)
VH: B1 VH with I107T
VL: B1 VL with Y29S, S93E
B4: AB-010680 (antibody, V domains shown)
VH: B1 VH with I107T
VL: B1 VL with K30M, R60Q
B5: AB-010679 (antibody, V domains shown)
VH: B1 VH
VL: B1 VL with R60Q
B6: AB-010698 (antibody, V domains shown)
VH: B1 VH
VL: B1 VL with Y29S, S92H
B7: AB-010684 (antibody, V domains shown)
VH: B1 VH
VL: B1 VL with Y29S, R60Q, S92H
B8: AB-010666 (antibody, V domains shown)
VH: B1 VH with G31D, I107T
VL: B1 VL with K30M, R60Q
B9: AB-010663 (antibody, V domains shown)
VH: B1 VH with G31D, I107T
VL: B1 VL with G23R, Y29S, K30M, R60Q
B10: AB-010678 (antibody, V domains shown)
VH: B1 VH with I107T
VL: B1 VL with G23R, Y29S, R60Q, S92H
B11: AB-010700 (antibody, V domains shown)
VH: B1 VH with I107T
VL: B1 VL with Y29S, S93R
B12: AB-010690 (antibody, V domains shown)
VH: B1 VH with I107T
VL: B1 VL with G23R
B13: AB-010687 (antibody, V domains shown)
VH: B1 VH with I107T
VL: B1 VL with Y29S, R60Q, S93E
B14: AB-010667 (antibody, V domains shown)
VH: B1 VH with G31D, I107T
VL: B1 VL with R60Q, S92H
B15: AB-010695 (antibody, V domains shown)
VH: B1 VH with I107T
VL: B1 VL with S92H
B16: AB-010696 (antibody, V domains shown)
VH: B1 VH
VL: B1 VL with Y29S, K30M
B17: AB-010662 (antibody, V domains shown)
VH: B1 VH with G31D, I107T
VL: B1 VL with G23R, R60Q
B18: AB-010683 (antibody, V domains shown)
VH: B1 VH with I107T
VL: B1 VL with Y29S, K30M, R60Q, S92H
B19: AB-010688 (antibody, V domains shown)
VH: B1 VH with I107T
VL: B1 VL with R60Q, S93E
B20: AB-010691 (antibody, V domains shown)
VH: B1 VH with I107T
VL: B1 VL with G23R, Y29S, K30M
B21: AB-010673 (antibody, V domains shown)
VH: B1 VH with G31D, I107T
VL: B1 VL with Y29S, R60Q, S93E
B22: AB-010685 (antibody, V domains shown)
VH: B1 VH
VL: B1 VL with R60Q, S92H
B23: AB-010682 (antibody, V domains shown)
VH: B1 VH
VL: B1 VL with Y29S, K30M, R60Q
B24: AB-010670 (antibody, V domains shown)
VH: B1 VH with G31D
VL: B1 VL with Y29S, R60Q, S92H
B25: AB-010668 (antibody, V domains shown)
VH: B1 VH with G31D
VL: B1 VL with Y29S, K30M, R60Q
B26: AB-010669 (antibody, V domains shown)
VH: B1 VH with G31D, I107T
VL: B1 VL with Y29S, K30M, R60Q, S92H
B27: AB-010689 (antibody, V domains shown)
VH: B1 VH
VL: B1 VL with G23R, Y29S
B28: AB-010671 (antibody, V domains shown)
VH: B1 VH with G31D
VL: B1 VL with R60Q, S92H
B29: AB-010694 (antibody, V domains shown)
VH: B1 VH with I107T
VL: B1 VL with K30M
B30: AB-010674 (antibody, V domains shown)
VH: B1 VH with G31D, I107T
VL: B1 VL with R60Q, S93E
B31: AB-010672 (antibody, V domains shown)
VH: B1 VH with G31D, I107T
VL: B1 VL with Y29S, R60Q, S93R
B32: AB-010676 (antibody, V domains shown)
VH: B1 VH with I107T
VL: B1 VL with G23R, R60Q
B33: AB-010686 (antibody, V domains shown)
VH: B1 VH with I107T
VL: B1 VL with Y29S, R60Q, S93R
B34: AB-010677 (antibody, V domains shown)
VH: B1 VH with I107T
VL: B1 VL with G23R, Y29S, K30M, R60Q
B35: AB-010702 (antibody, V domains shown)
VH: B1 VH with I107T
VL: B1 VL with S93E
B36: AB-010661 (antibody, V domains shown)
VH: B1 VH with G31D
VL: B1 VL with G23R, Y29S, R60Q
B37: AB-010697 (antibody, V domains shown)
VH: B1 VH with I107T
VL: B1 VL with Y29S, K30M, S92H
B38: AB-010664 (antibody, V domains shown)
VH: B1 VH with G31D, I107T
VL: B1 VL with G23R, Y29S, R60Q, S92H
B39: AB-010681 (antibody, V domains shown)
VH: B1 VH with I107T
VL: B1 VL with R60Q, S92H
B40: AB-010675 (antibody, V domains shown)
VH: B1 VH
VL: B1 VL with G23R, Y29S, R60Q

These binders were tested against Human EphA2 (ephrin receptor A2) on cells (human, UniProt P29317 25-976) (assay: cell-based or functional assay).
Chain of Human EphA2 (ephrin receptor A2) on cells (P29317 25-976): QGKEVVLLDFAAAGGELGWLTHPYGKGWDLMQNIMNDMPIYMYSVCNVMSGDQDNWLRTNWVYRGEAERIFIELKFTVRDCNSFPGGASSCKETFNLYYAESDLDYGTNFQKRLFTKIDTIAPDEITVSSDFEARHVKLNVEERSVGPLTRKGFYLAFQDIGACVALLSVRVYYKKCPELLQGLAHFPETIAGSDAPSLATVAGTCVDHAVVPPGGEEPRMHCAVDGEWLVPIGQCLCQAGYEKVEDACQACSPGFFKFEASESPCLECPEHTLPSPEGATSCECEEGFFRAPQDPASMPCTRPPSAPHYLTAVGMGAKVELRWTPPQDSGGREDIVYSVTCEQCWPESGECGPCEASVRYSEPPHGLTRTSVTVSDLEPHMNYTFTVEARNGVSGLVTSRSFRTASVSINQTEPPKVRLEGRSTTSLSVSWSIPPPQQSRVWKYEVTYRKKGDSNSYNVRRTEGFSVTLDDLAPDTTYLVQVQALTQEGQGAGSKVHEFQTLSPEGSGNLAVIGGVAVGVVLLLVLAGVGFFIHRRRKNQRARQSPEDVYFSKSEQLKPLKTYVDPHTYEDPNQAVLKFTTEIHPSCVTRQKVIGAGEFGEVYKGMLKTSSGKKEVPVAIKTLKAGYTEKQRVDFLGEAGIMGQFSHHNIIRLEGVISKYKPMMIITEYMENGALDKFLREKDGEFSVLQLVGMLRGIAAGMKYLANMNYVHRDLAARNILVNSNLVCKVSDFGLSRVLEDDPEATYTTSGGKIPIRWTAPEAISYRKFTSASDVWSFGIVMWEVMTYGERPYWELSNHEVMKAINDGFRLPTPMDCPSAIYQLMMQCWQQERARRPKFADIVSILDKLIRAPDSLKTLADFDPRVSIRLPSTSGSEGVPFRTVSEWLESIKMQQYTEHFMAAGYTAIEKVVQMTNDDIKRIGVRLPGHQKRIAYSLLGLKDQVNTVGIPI

| ADCC - EC50 (nM), Trial 1, A549 [nM] | ADCC - EC50 (nM), Trial 2, A549 [nM] | Binder |
| --- | --- | --- |
| 0.15 | – | B1 |
| ~0.23 | 0.14 | B2 |
| 3 | – | B3 |
| ~0.081 | 0.031 | B4 |
| ~0.15 | 0.04 | B5 |
| 0.23 | – | B6 |
| ~0.14 | 0.048 | B7 |
| ~0.19 | 0.16 | B8 |
| 4.7 | – | B9 |
| ~0.14 | 0.047 | B10 |
| 9.5 | – | B11 |
| 0.19 | – | B12 |
| 2.8 | – | B13 |
| < 0.03 | 0.012 | B14 |
| ~0.021 | 0.0096 | B15 |
| 1.9 | – | B16 |
| 0.57 | – | B17 |
| ~0.14 | 0.046 | B18 |
| ~0.052 | 0.032 | B19 |
| 2.2 | – | B20 |

| ADCC - EC50 (nM), Trial 1, A549 [nM] | ADCC - EC50 (nM), Trial 2, A549 [nM] | Binder |
| --- | --- | --- |
| 3.9 | – | B21 |
| < 0.03 | 0.0057 | B22 |
| 3.2 | – | B23 |
| 0.36 | – | B24 |
| 3.7 | – | B25 |
| 0.44 | – | B26 |
| 2.5 | – | B27 |
| < 0.03 | 0.0064 | B28 |
| 0.14 | – | B29 |
| ~0.13 | 0.1 | B30 |
| 12.4 | – | B31 |
| ~0.1 | 0.039 | B32 |
| 6.4 | – | B33 |
| 1.6 | – | B34 |
| 0.065 | – | B35 |
| 5.7 | – | B36 |
| 0.3 | – | B37 |
| 0.54 | – | B38 |
| < 0.03 | 0.0079 | B39 |
| 1.5 | – | B40 |
